The supplement of paper PMC10567573

B1: FAM189A2 (parent)
chain: GSEAAVIPLDLGCTQVTQDGDIPN

Variants of: B1
Assay: protein stability index of a GFP-peptide fusion (GPS, HEK-293T) (PSI 1-6); higher = more stable
Settings: c terminus: a fixed tail appended
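Also: lentivirally expressed fusions sorted by FACS into six bins by GFP to DsRed ratio, PSI derived from sequencing read proportions per bin multiplied by bin number.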

Protein stability index of substitutions, site by site:
T17: R 5.18 | W 4.69 | F 5 | N 5.19 | Q 5.24 | H 5.17 | L 4.88 | A 5.21 | P 5.44 | Y 4.87
T14: P 5.49 | H 4.91 | K 5.46 | E 5.51 | C 4.97 | F 3.97 | M 4.86 | Q 5.57 | A 5.29 | G 5.17 | S 5.27 | W 4.16 | L 5.17 | I 4.99 | D 5.25 | Y 5.09
E3: A 5.2 | F 4.14 | R 5.08 | M 4.45 | N 5.1 | D 5.38 | V 4.49 | P 5.23 | Y 4.18 | W 2.96 | L 4.54 | S 5.1 | H 4.49 | G 5.11 | K 5.35
D21: G 5.27 | S 4.97 | M 4.05 | N 4.77 | T 4.97 | W 3.76 | A 5.07 | Y 4.46 | K 5.48 | Q 4.92 | H 4.38 | P 4.77 | L 4.52 | F 3.95 | E 5.03
A4: S 5.24 | C 4.74 | P 5.53 | H 4.7 | N 5.58 | D 5.61 | Y 4.79 | K 5.49 | F 4.44 | Q 5.36 | I 4.37 | E 5.57 | V 4.97 | T 5.27
P23: D 5.81 | M 5.22 | G 5.44 | I 5.16 | W 4.07 | K 5.17 | L 5.25 | Q 5.3 | Y 4.52 | N 5.87 | V 5.29 | H 4.85
I7: W 4.79 | L 4.86 | Y 5.32 | N 5.66 | M 5.24 | C 5.04 | F 4.96 | K 5.23 | G 5.6 | T 5.67 | R 4.98
D10: I 3.7 | N 5.14 | G 5.29 | H 5.26 | R 5.07 | L 4.2 | Q 4.92 | P 5.26 | F 3.9 | Y 4.39 | K 4.85 | M 4.02 | W 4.02
G12: W 4.62 | E 4.86 | S 4.37 | R 4.87 | V 5.16 | F 4.76 | L 4.93 | N 5.09 | Y 5.05 | T 5.38 | K 5.2 | I 4.96 | H 4.87 | A 5.5
P8: L 2.65 | C 4.03 | F 2.34 | G 5.18 | E 4.85 | Y 2.83 | M 3.41 | W 2 | Q 4.22 | R 4.53
S2: F 4.96 | H 5.25 | L 4.77 | I 5.23 | K 4.64 | G 5.03 | D 5.51 | T 5.01 | N 5.52 | C 5.49 | R 5.61 | E 5.55 | Q 5.36 | A 5.71 | P 5.21
Q18: M 4.83 | K 5.17 | L 5.25 | C 5.27 | P 5.18 | I 4.62 | F 4.26 | Y 4.61 | D 5.63 | T 5.02 | S 5.54 | R 5.09 | N 4.68 | A 5.46 | E 5.38 | W 4.67 | V 4.92
G20: K 5.28 | H 5.53 | C 5.3 | Y 5.09 | E 5.62
